The record followed here is article PMC9246220.

For this data set, the target named is AphB C235S-His6 (Vibrio cholerae, UniProt Q9KT56 1-299, C235S). As to the kind of experiment: EMSA; 0-2 uM protein; affinity similar to wild type; 20 nM DNA, 10 mM Tris-HCl pH 7.5, 1 mM EDTA, 50 mM KCl, 100 ug/ml BSA, 10 ug/ml poly dI-dC, 100 mM DTT when indicated; 20 min at 25 C; 5% PAGE in 0.5X TAE. Conditions: protein: recombinant; chain copies: 2; label: 5'-biotin; blunt. A general note: A gel shift assay detects complexes by their altered migration in electrophoresis.

B1: hmpA promoter probe (dsDNA)
DNA 1: CAATAAATTAGGTTTTGGCATGCAATCTGCTCATTAAGAAGGCTTGTGTAGAGTGGCTCA
DNA 2: TGAGCCACTCTACACAAGCCTTCTTAATGAGCAGATTGCATGCCAAAACCTAATTTATTG
Take B1: the binding result is reported as “binds”.

B2: tcpP promoter probe (dsDNA)
DNA 1: GCAATTAAGTTCTCATTATCAACTGCAGAATTAGATTGCAAATAATTATATTAAAAAAAA
DNA 2: TTTTTTTTAATATAATTATTTGCAATCTAATTCTGCAGTTGATAATGAGAACTTAATTGC
With B2, the binding result was “binds”.
